Source: paper PMC6075034

T1: Yra1 (Saccharomyces cerevisiae, UniProt Q12159 1-226)
T1 sequence: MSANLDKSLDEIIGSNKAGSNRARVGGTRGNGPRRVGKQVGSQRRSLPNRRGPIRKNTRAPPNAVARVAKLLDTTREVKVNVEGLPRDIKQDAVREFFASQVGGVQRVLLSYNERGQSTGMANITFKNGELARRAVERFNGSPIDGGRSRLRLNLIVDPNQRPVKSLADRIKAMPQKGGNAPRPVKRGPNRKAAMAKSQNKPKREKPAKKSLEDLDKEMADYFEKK

B1: 25-bp dsRNA (RNA-25 + complementary RNA; RNA-25C is printed identical to RNA-25, apparent misprint, complement built) (dsRNA)
RNA 1: GUGUAAUGUUGUUGCACGGCACGCU
RNA 2: AGCGUGCCGUGCAACAACAUUACAC
B2: 25-bp RNA-DNA hybrid (RNA-25/DNA-25C) (DNA:RNA)
RNA: GUGUAAUGUUGUUGCACGGCACGCU
DNA: AGCGTGCCGTGCAACAACATTACAC

The binders below were run against T1, Yra1 (assay: EMSA).

Binding result, binds:
GUGUAAUGUUGUUGCACGGCACGCU (ssRNA) [RNA-25 ssRNA]
B1
B2
AGCGTGCCGTGCAACAACATTACAC (ssDNA) [DNA-25C ssDNA]
